Reference: patent US20080039402A1 (UNIVERSITE BORDEAUX 2, published 2008)
Positions of bridges follow the written chain, without caps; N, C: chain ends. Non-standard residues stand in square brackets, D forms with d. No end group written: not given here. βAla = NCCC(=O)O; Sar = CNCC(=O)O

T1: CD23 (FCεRII) on human CD23+ cells (human, UniProt P06734 1-321)
T1 sequence (looked up): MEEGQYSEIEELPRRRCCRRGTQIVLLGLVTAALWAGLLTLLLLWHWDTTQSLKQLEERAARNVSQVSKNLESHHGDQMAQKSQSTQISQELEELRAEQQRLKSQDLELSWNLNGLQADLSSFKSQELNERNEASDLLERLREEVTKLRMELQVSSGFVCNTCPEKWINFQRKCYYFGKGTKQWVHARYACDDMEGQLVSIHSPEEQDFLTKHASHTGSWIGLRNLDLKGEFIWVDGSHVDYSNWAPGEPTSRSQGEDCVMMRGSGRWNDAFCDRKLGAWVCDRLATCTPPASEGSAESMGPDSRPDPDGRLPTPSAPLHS

B1: Compound 290 (peptide)
peptide: HCNWCS
notes: Cys at residues 2 and 5; no disulfide is stated for this compound
B2: Compound 397 (scrambled) (peptide)
peptide: SPWNEHF
notes: Comment 'scrambled'; L-amino acids, reverse order of FHENWPS
B3: Compound 398 (peptide)
peptide: cyclo(HENW[Sar]S)
SMILES: CN1CC(=O)N[C@@H](CO)C(=O)N[C@@H](Cc2c[nH]cn2)C(=O)N[C@@H](CCC(=O)O)C(=O)N[C@@H](CC(N)=O)C(=O)N[C@@H](Cc2c[nH]c3ccccc23)C1=O

Key:
[1] = target: T1, CD23 (FCεRII) on human CD23+ cells; experiment: cell-based or functional assay
[2] = target: T1, CD23 (FCεRII) on human CD23+ cells; experiment: cytofluorometry; CD23+ cells pre-incubated with peptide, then IgE/anti-IgE-FITC; Experiment 2
[3] = target: T1, CD23 (FCεRII) on human CD23+ cells; experiment: cytofluorometry; CD23+ cells pre-incubated with peptide, then CD23-Ab; Experiment 2
[4] = target: T1, CD23 (FCεRII) on human CD23+ cells; experiment: cytofluorometry; CD23+ cells pre-incubated with peptide, then IgE/anti-IgE-FITC; Experiment 1
[5] = target: T1, CD23 (FCεRII) on human CD23+ cells; experiment: cytofluorometry; CD23+ cells pre-incubated with peptide, then CD23-Ab; Experiment 3
[6] = target: T1, CD23 (FCεRII) on human CD23+ cells; experiment: cytofluorometry; CD23+ cells pre-incubated with peptide, then CD23-Ab; Experiment 1
[7] = target: T1, CD23 (FCεRII) on human CD23+ cells; experiment: inhibition of anti-CD23-FITC mAb binding to CD23+ cells; Activity grade

| Molecule | % Inhibition (nitrites; inhibition of iNOS production by activated CD23+ macrophages) [1] | binding result [7] | further results |
| --- | --- | --- | --- |
| Compound 411 (Ac N W CO2H) (peptide) | 84% |  |  |
| Compound 490 (G[allyl-] N W G[allyl-] S) (peptide) | 81% |  |  |
| unrelated control peptide (pNu) |  |  | % of fluorescence intensity recovered, compared to cells incubated in medium alone [2]: 110%; TNF-α in supernatant of CD23+ cells, pNu + CD23-Ab, Experiment 1 [1]: 162 pg TNF-α/ml; TNF-α in supernatant of CD23+ cells, pNu + CD23-Ab, Experiment 2 [1]: 132 pg TNF-α/ml; [NO2-], macrophages from synovial fluid of Rheumatoid Arthritis patients, pNu + CD23-Ab, Experiment 1 [1]: 15.2 µM; [NO2-], macrophages from synovial fluid of Rheumatoid Arthritis patients, pNu + CD23-Ab, Experiment 2 [1]: 14.4 µM; % of fluorescence intensity recovered, compared to cells incubated in medium alone [3]: 88%; % of fluorescence intensity recovered, compared to cells incubated in medium alone [4]: 73%; % of fluorescence intensity recovered, compared to cells incubated in medium alone [5]: 94%; % of fluorescence intensity recovered, compared to cells incubated in medium alone [6]: 120% |
| Compound 489 (NH2 G[allyl-] N W G[allyl-]) (peptide) | 62% |  |  |
| Compound 492 (Ac n w CO2H) (peptide) | 77% |  |  |
| Compound 491 (Ac w n CO2H) (peptide) | 94% |  |  |
| Compound 410 (Ac N W BetaA CO2H) (peptide) | 61% |  |  |
| HENWPS [P30K (H E N W P S)] | 74% |  |  |
| F[βAla]ENWPS [Compound 339] |  | binds |  |
| FHENWP [P30L (F H E N W P)] | 78% |  |  |
| HPNWRS [Compound 281] |  | binds |  |
| HENWPS-NH2 [Compound 244] |  | binds |  |
| FHENWPS [FHENWPS peptide (p30A)] | 74% |  |  |
| FHENWAS [Compound 316] |  | binds |  |
| FHENWPA [Compound 349] |  | binds |  |
| FAENWPS [Compound 338] |  | binds |  |
| FHANWPS [Compound 337] |  | binds |  |
| FHEAWPS [Compound 331] | 43% |  |  |
| FH[βAla]NWPS [Compound 340] |  | binds |  |
| B1 |  | binds |  |
| B2 |  | binds |  |

| Molecule | % Inhibition (nitrites; inhibition of iNOS production by activated CD23+ macrophages) [1] | binding result [7] | further results |
| --- | --- | --- | --- |
| HNEWPS [Compound 288] |  | binds |  |
| HEPWRS [Compound 289] |  | binds |  |
| FHKPWRA [P30G (F H K P W R A)] | 55% |  |  |
| HENWP-NH2 [Compound 249] |  | binds |  |
| HENWS (cyclic H2T (N-terminus amino group to C-terminus carboxyl group linkage)) [Compound 437] | 56% |  |  |
| FHEFWPT [FHEFWPT (p30D)] | 68% |  |  |
| Ac-HENWPS-NH2 [Compound 243] |  | binds |  |
| HENWKS [Compound 333] | 69% |  |  |
| RENWPS [Compound 384] |  | binds |  |
| HENAPS [Compound 436] | 60% |  |  |
| HEQWPS [Compound 364] |  | binds |  |
| HENWGS (cyclic H2T (N-terminus amino group to C-terminus carboxyl group linkage)) [Compound 299] | 74% |  |  |
| HQNWPS-NH2 [Compound 400] |  | binds |  |
| HENWES (lactam N-5) [Compound 327] | 60% |  |  |
| FHEQWPS [P30O (F H E Q W P S)] | 73% |  |  |
| FHENW[βAla]S [Compound 328] | 26% |  |  |
| B3 | 74% |  |  |
| FHSQWPN [FHSQWPN (p30E)] | 65% |  |  |
| FHENWPT [P30M (F H E N W P T)] | 76% |  |  |
| HENWPSG (cyclic H2T (N-terminus amino group to C-terminus carboxyl group linkage)) [Compound 298] |  | binds |  |
